Consider 1 substance from PMC4963855.

This test concerns the target mouse recombinant TNF (mouse) (UniProt P06804).
Chain of UniProt P06804 (P06804 80-235): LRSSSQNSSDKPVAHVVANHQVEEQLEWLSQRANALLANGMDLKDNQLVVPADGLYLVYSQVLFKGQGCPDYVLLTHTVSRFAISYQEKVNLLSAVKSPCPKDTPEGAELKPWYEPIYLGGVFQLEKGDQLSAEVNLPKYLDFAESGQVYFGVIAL

For the substance “BmooMP-alpha-I, zinc metalloprotease of class P-I from Bothrops moojeni snake venom (enzyme)”, the TNF level detected by sandwich ELISA after preincubation of recombinant TNF (1000 pg/mL) with 12 ug/mL BmooMP-alpha-I for 45 min at 37 °C (degradation of TNF) was 53.4 % decrease and the TNF level detected by sandwich ELISA after preincubation of recombinant TNF with BmooMP-alpha-I inactivated with 10 mM Na2EDTA (BmooMP-alpha-I(i)) was found to be 80%.
